Experimental findings from the nanobody polyreactivity screen of Harvey et al. (2022) are described below.

The nature of this series: yeast display, Sf9 membrane polyspecificity reagent, FACS + sequencing; frameworks hold sequencing errors. The method, boiled down:
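Sorting gates, low and high (top ~1%), were placed on anti-HA fluorescence to track expression and on streptavidin fluorescence to track reagent binding. A clone's polyreactivity label is taken from the gate it came out of. The reagent was 10% biotinylated, detergent-solubilized Sf9 membrane, applied for 1 hour at 4 °C to galactose-induced yeast display cells.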
For “QVQLVESGGGLVQAGGSLRLSCAASGSTFLYNAMGWYRQAPGKERELVAAITIGGGSTYYADSVKGRFTISRDNAKNTVYLQMNSLKPEDTAVYYCNKGSYYWWDPGSTYIDDYWGQGTQVTVSS”, the “polyreactivity (PSR sort gate)” value is given as “low polyreactivity”.

Take “QVQLVESGGGLVQAGGSLRLSCAASGFIFGRNAMGWYRQAPGKERELVAVISKRSGNTYYADSVKGRFTISRDNAKNTVYLQMNSLKPEDTAVYYCNAVDQKLLRYDYWGQGTQVTVSS”: the “polyreactivity (PSR sort gate)” value is “high polyreactivity”.

For “QVQLVESGGGLVQAGGSLRLICAASGFTFSYYAMVWYRQAPGKERELVAVISDRGGITYYADSVKGRFTISRDNAKNTVYLQMNSLKPEDTAVYYCAAQNPRYNYRYYYWGQGTQVTVSS”, the “polyreactivity (PSR sort gate)” value is “low polyreactivity”.

For the sequence “QDQLVESGGGLVQAGGSLRLSCAASASIFNVNTMGWYRQAPGKERELVAAISYSGGSTYYADSVKGRFTISRDIAKNTVYLQMISLKPEDTAFYYCNVSPTTTVDGGGYDSWGQGTQVTVSS”, the “polyreactivity (PSR sort gate)” value was “low polyreactivity”.

Turning to “QVQLVESVGGLVQAGGSLRLSGAASGSTFGRYAMGWSRQAPGKEREFVANISWSDGSTNYADSVKGRFTISRDHAKNTVYFQMNSLKPEDTAVYYCATGLGYTAFGKEVYDWHDYWGQGTQVTVSS”, the “polyreactivity (PSR sort gate)” value is “low polyreactivity”.

Consider “QVQLVESGEGLVQAGGRLRLSCAPSGSTFMTYAMGWYRQAPGKERELVAAIRWSGGGTYYADSVKGRFTISRDNAKNTVYLQMNSLKPEDTAVYYGAADHFNYTPGRDYWGQGTQVTVSS”, for which the “polyreactivity (PSR sort gate)” value is on record as “low polyreactivity”.

For the sequence “QVQLEESGGGLVQAGGSLRLSFAASGYTFDPYDMGWYRQAPGKERELVASISWSGGDTYYADSVKGRFTISRDNAKNTVYLQMNSLKPEDTAVYYCAADRYIPRSIIMDYWGQGNQVTVSS”, the “polyreactivity (PSR sort gate)” value is on record as “low polyreactivity”.

With “QVQLQESGGGLVQVGVSQRLSCAASGNIFYNYAMGWYRHAQGKEREFDATINHCTSINYADSVKGLFTISRDNAKKTVYLQMNSLKPEDTAVYYCAADLSWTDNLFYWGQGTQVTVSS”, the “polyreactivity (PSR sort gate)” value is “low polyreactivity”.

Consider “QVQLLESGGGLVQAGGSLRLSCMASGSILGDRMSWYRQAPGKEHELVATIYDGGITCYADSMKGRFTISRDNAKNTVYLQMNSLRPEDTAVYYCGASFEGYRYHVYCGQGTQVTVSS”, for which the “polyreactivity (PSR sort gate)” value was “low polyreactivity”.

“QVQLVESGGGLVQAGGSLRLSCAASGSTFPHNAMGWYRPAPGKERELVAAISVGGGSTHYADSVKGRFTISRDNAKNTVYLQMNSLKPEDTAVYYCAKDYAYQYSFVTYDYWGQGTQVTVSS”: the “polyreactivity (PSR sort gate)” value was “low polyreactivity”.

Consider “QVQLVESGGGLVQAGGSLRLSCADSGSTFWYYVMGWYRQAPGKERELVAVINTRGGSTYYADSVKGRFTISRDNAKNTVYLQMNSLKPEDTAVYYCNARKVKRGKYNYWGQGTQVTVSS”, for which the “polyreactivity (PSR sort gate)” value is reported as “high polyreactivity”.

With “QVQLVESGGGLVQAGGSLRLSCAASGRTFYRNAMGWYRPAPGKERELVAAITSSGASTYYADSVKGRFTISRDNAKNTVYLQMKSLKPEDTAVYYCAAKYVFSVGNYRYDYWGQGTQVTGSS”, the “polyreactivity (PSR sort gate)” value is recorded as “low polyreactivity”.

With “QVQLVESGGGLVQAGGSLRLSCAASGRIFYAYAMGWYRQAPGKERELVATITGIGGSTYADSVKGRFTISRDNAKNTVYLQMNSLKPEDTAVYYCNAAKWLTSGGLDYWGQGTQVTVSS”, the “polyreactivity (PSR sort gate)” value is recorded as “high polyreactivity”.

For the sequence “QVQLVESGGGLVQAGGSLRLSCAASGSIFVFYAMGWYRQAPGKERELVAAITRSGGRTYADSVKGRFTISRDNAKNTVYLQMYSLKPEDTAVYYCNAGTYWYNGRYTRSAHDYWGQGTQVTVSS”, the “polyreactivity (PSR sort gate)” value is given as “high polyreactivity”.

As for “QVQLVESVGGLVQEGGSLRLSCAASGSIRYAMGRYRQAPGKERELDAAISGRGGNTYYADSVKGSFTISRDNAKNTVYLQMNSLKPEDTAVYYCATRGNRVLTGTRYDYWGQGTQITVSS”, the “polyreactivity (PSR sort gate)” value is “high polyreactivity”.

In the case of “QVQLVETGGGLVQAGGSLRLSCAASGSTFFINAMGWYRQAPGKERELVAAITSTDSTTYADSVKGRFTISRDNAKNTVYLQMNSLKPEDTAVYYCAKESIGQDPVSGAWARHEYDYWGQGTQVTVSS”, the “polyreactivity (PSR sort gate)” value is recorded as “low polyreactivity”.

“QVQLVESGGGLVQAGGSLRLSCAASGSILIVYAMGWYRQAPGKERELVAAITRGGRTNYADSVKGRFTISRDNAKNTVYLQMNSLKPEDTAVYYCAARVLPANVKPYNYWGQGTQVTVSS”: the “polyreactivity (PSR sort gate)” value is on record as “high polyreactivity”.

For the sequence “QVQLVESGGGLVQAGGSHRLSCAASGFTFNKYAMGWYRQAPRKERELVAAISSSGGRTSYADSVKGRFTISRDNAKNTVYLQMNSVKPEDTAVYYCNKVSTADMGYWGQGTQVTVSS”, the “polyreactivity (PSR sort gate)” value was “high polyreactivity”.

With “QVQLVETCGGIVQAGGSLRLSCAASGITFALYAMGWYRESPGKERELVAAISYSGGRSYYADSVKGRFTISRDHAQNTVNLQMNSLKPEDTAVYYCAAGGSGSGPYGYGYWGQGTKVTVSS”, the “polyreactivity (PSR sort gate)” value is reported as “high polyreactivity”.

For “QVQLVESGGGLVQAGGSLRLSCAASGSTFHPYAMGRYRQAPGKERELVAAITWRVGSTYYADSVKGRFTISRDNAKNSVYLQMNSLKPEDTAVYYCAVSYLSTLGRSRYDYWGQGTQVTVSS”, the “polyreactivity (PSR sort gate)” value was “low polyreactivity”.

Regarding “RVQLQESGGGLVQAGGSLRLSCAASGTIFIRGDMGWYRQAPGKEREFVASIDTGSNTYYADSEKGRFTISRDNAKNAVYLQMNCLKPGDTAVYYCVVDYQLSGRLRYWGQGTQVTLSS”, the “polyreactivity (PSR sort gate)” value is reported as “low polyreactivity”.

As to “QVQLVESGGGLVQAGGRLRLSCADSGSTFVNSVMGWYRPAPGKERELVAGIRFRGGRTYYADSVKGRFTISRDNAKNTVYLQMNSLKPEDTAVYYCAKVQRQSVGFDYWGQGTQVTVSS”, the “polyreactivity (PSR sort gate)” value is recorded as “high polyreactivity”.

On to “QVQLVESGGGLVQAGGSLRLSCAASGSILARYAMGWYRQAPGKERQLVAAISYNGCSTYYADSVKGRFTISRDNAKNTVYLQMNSLKPEDTAVYYCAKAYDTTLTYNYWGQGTQVTVSS”, for which the “polyreactivity (PSR sort gate)” value is given as “low polyreactivity”.

With “QVQIVESGRGLVQAGGSLRLSCAPSGRIFIYNAMGWYIQAPGKERELVAAISWRGGRTYYADSVKGRFTISRDNAKNTVYLQMNRLKPEDTAVYYCNAEPYGYERLYDYWGQGTQVNVSS”, the “polyreactivity (PSR sort gate)” value is on record as “high polyreactivity”.

Consider “QVQLVESGGGLVQAGGSLRLSCAASGSIFAWYAMGWYRRAPGKESELVAAITWSGGSTYYADSVKGRFTISRDNAKNTVYLQMNSMKQEDTAVYYCAVEWYYRNNAIISGYYYWGKGTQVTVSS”, for which the “polyreactivity (PSR sort gate)” value is listed as “high polyreactivity”.

In the case of “QVQLVESGVGLVQAGGSLRLSCAASGRIFTPYAMGWYRQAPGKERELVAAITGSGGITYYADSVKGRFTISRDNSKNTVYLQMNSLKPEDTAVYYCNADTPVWDGHAYPGDYWGQGTQVTVSS”, the “polyreactivity (PSR sort gate)” value is recorded as “low polyreactivity”.

Turning to “QVQLVESGGGLVQAGGSLRLSCAASGSTFKPYPMGWYRQAPGKERELVADITGGGSTNYADSVKGRFTNSRDNAKNTVYLEMNSLKPEDTGVYYCNATYLLKYRYYDSTRYDYWGQGTQVTVSS”, the “polyreactivity (PSR sort gate)” value is reported as “low polyreactivity”.

Consider “QVQLVESGGGLVQAGGSFRLSCAASGLISTTYAMGWYRQAPGKERELVAAINVSGGSTYYADSVKGRFTISRDHAKNTVYLQMNSLKPEDTAVYYCAARHDKRRQYYVGQSAFDYWGQGTQVTVSS”, for which the “polyreactivity (PSR sort gate)” value is given as “low polyreactivity”.

With “QVQLQESAGGLVKAGGSLRLSCAASGNISNHNDMRWYRQAPGKEREFVAGITAGGNTNYADSVKGRFTISRDNAKNTVYLQMNSLKPEDTAVYYCAAYPDYAKSYGYWGQGTQATVSS”, the “polyreactivity (PSR sort gate)” value was “low polyreactivity”.

Consider “QVQLVESGGGLVQAGGSLRLSCAASGSTFRTNGMGWYRQAPGKESELVAAITRGTSTNYADSVKGRFTISRDNAKNTVYLQMNSLKPEDTAVYYCAADGPDRYHYTTTRYRYDYWGQGTQVTVSS”, for which the “polyreactivity (PSR sort gate)” value is on record as “low polyreactivity”.

Turning to “QVQLVESGGGLVQAGGSLRLSCAASGSTFSYNAMGWYRQAPGKEREFVAAITTSGVRTYYADSVKGRFTISRDNAKNTVYLQMNSLKPEDTAVYYCAARANYIFYGMDYWGQGTQVSVSS”, the “polyreactivity (PSR sort gate)” value is given as “high polyreactivity”.

For the sequence “QVQLVESGGGLVQAGGSLRLSCAASGYNLSVNAMGWYRQAPGKERELVATIDIAGGSTYYADSVNGRFTISRDNAKNTVYLQMNSMKPVDTAVYYCNTEWNSLSKSSLGGRYDHWGQCTQVTVSS”, the “polyreactivity (PSR sort gate)” value is on record as “low polyreactivity”.

With “QVQLVESGGGLVQAGGSLRLSCAASGGTFGRNAMGWYRQAPGKERELVATITRRGGSTYYADSVKGRFTISRDNAKNTVYLQMNSLKPEDTAVYYCAAAGRYSNGTGYGYWGQGTQVTVSS”, the “polyreactivity (PSR sort gate)” value was “high polyreactivity”.

In the case of “QVQLVESGGGLVQAGGSLRLSCAASGLTFYSYAMGWYRQAPGKERELVAAISSSGGNTYYADSVKGRFTISRDNAKNTVYLQMNSLKPEDTAVYYCNVYHWSRVFAIDYYWGQATQVTVSS”, the “polyreactivity (PSR sort gate)” value is “high polyreactivity”.

For the sequence “QVQLVESGGGLVQAGGSLRLSCAASGRTFISIVMAWYRQAPGKERELVAAIRSSGRTYYADSVKGRFTISRDNAKITVYLQINSLKPVDTAVYYCAAPGGLLGSGYWGQGTLVTVSS”, the “polyreactivity (PSR sort gate)” value is recorded as “low polyreactivity”.

For “QVQLVESGGGLVQAGRSLRLSFADSGVIVTSNAMGWYRQAPGKEREFVADITSSDSTYYADSVKGRFTISRDNAKNTVYLQMNSLKPEDTAVYYCAARGTTVRAYGYGFGYWGQGTQVTVSS”, the “polyreactivity (PSR sort gate)” value is on record as “low polyreactivity”.

Turning to “QVQLVESGGGLVQAGGSLRLSCAASGSIFYSNKGWYRQAPGKEREFVAAISGSGVRTYYADSVKGRFTISRDNAKNTVYLQMNSLKPEDTAVYYCNAGRRQDYRYIYWGQGTQVTVSS”, the “polyreactivity (PSR sort gate)” value is “high polyreactivity”.

As to “QVQLVESGGGLVQAGGSLRLSCAASGRTFGQYAMGWYRQAPGKERELVAAISWGGGRTYYADSVKGRFTISRDNAKNTVYLQMNSLKPEDTAVYYCNAVYSPRYYVGGYDYWGQGTQVTVSS”, the “polyreactivity (PSR sort gate)” value is given as “high polyreactivity”.

With “LVQLQESGGGLVQAGGSLRLSCAASGTISPGGYMGWYRQAPGKERELVASMNVGGSTNYADSVKGRFTISRDNAIITVYLQMNSLKPEDNAVYYCAVWGRNRLQLSYWGQGTQVTVSS”, the “polyreactivity (PSR sort gate)” value is on record as “low polyreactivity”.

Consider “QVQLVESGGGLVQAGGSLRLSCAASGFTCVRYAMGWYRPAPGKEREFVASISARGGNTFYADSVKGRFTISRDHAKNTVYLQMNSLKPEDTAVYYCAKRGPYGTGYGYWGQGTQLTVSS”, for which the “polyreactivity (PSR sort gate)” value is “high polyreactivity”.
